Reference: patent US20200129639A1 (Seagen, published 2020)

Biological target: T1, CD19 (UniProt P15391 20-556, limits assumed)
T1 sequence (looked up): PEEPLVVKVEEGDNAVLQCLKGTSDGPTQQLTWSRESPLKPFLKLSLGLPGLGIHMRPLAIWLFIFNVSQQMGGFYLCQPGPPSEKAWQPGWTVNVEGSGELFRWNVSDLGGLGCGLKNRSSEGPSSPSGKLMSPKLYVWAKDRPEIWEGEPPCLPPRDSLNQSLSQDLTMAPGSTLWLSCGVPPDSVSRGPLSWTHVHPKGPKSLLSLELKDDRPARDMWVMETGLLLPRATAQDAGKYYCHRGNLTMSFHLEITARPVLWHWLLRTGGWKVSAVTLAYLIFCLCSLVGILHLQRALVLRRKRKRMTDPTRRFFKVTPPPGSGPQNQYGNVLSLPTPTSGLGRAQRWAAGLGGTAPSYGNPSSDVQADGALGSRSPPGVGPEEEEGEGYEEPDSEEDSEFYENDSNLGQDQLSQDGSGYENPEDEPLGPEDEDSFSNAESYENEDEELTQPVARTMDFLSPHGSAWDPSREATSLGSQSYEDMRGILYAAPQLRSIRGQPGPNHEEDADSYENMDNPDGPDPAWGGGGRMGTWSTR
Assay: cell-based or functional assay

B1: hBU12 co-conjugate (2 drugs on 1 ADC) (antibody, V domains shown)
VH: QVQLQESGPGLVKPSQTLSLTCTVSGGSISTSGMGVGWIRQHPGKGLEWIGHIWWDDDKRYNPALKSRVTISVDTSKNQFSLKLSSVTAADTAVYYCARMELWSYYFDYWGQGTLVTVSS
VL: EIVLTQSPATLSLSPGERATLSCSASSSVSYMHWYQQKPGQAPRLLIYDTSKLASGIPARFSGSGSGTDFTLTISSLEPEDVAVYYCFQGSVYPFTFGQGTKLEIKR
Co-Conjugate IC50 (ng/mL), cytotoxicity on Granta-519 cells: 3 ng/mL
Co-Conjugate IC50 (ng/mL), cytotoxicity on SU-DHL-16 cells: 0.2 ng/mL
